Reference: patent US20220106400A1 (Bristol-Myers Squibb, published 2022)
Substitutions are numbered along the chain they refer to. Names may count otherwise.

How the values were obtained:
human GITR = target: T1, human GITR (human, UniProt Q9Y5U5 26-241); assay: cell-based or functional assay
T1 sequence (looked up): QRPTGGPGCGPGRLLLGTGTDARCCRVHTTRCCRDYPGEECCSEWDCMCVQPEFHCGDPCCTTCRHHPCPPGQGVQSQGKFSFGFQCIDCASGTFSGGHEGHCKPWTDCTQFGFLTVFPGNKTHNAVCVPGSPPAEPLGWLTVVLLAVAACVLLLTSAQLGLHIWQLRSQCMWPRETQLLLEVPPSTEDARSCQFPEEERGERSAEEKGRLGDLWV

[1] = target: T2, N-terminal domain of hCD73 (residues 26-336 of human CD73), his-tagged (human, UniProt P21589 26-336); assay: SPR Biacore T100, mAb captured on protein A, N-hCD73-his analyte, 25 C; separate experiment
T2 construct: also called N-hCD73; N-hCD73-his
T2 sequence (looked up): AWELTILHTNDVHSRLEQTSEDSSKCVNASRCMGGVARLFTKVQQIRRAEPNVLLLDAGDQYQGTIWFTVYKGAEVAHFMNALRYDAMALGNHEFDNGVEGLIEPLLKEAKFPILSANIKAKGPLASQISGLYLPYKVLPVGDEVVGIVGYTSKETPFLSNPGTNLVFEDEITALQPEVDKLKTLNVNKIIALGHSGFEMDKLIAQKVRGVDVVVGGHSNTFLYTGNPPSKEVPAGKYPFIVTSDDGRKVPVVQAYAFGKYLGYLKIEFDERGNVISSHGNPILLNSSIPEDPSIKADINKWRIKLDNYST
Method: (§1) The affinity of the antibodies for human CD73 was measured to determine whether the change of the constant region affects them. The affinities were determined by Surface Plasmon Resonance (SPR) as follows. […] For these experiments, protein A (Pierce) was immobilized to a density of 3000-4000 RU on flow cells 1-4 of a CM5 sensor chip (GE Healthcare) using standard ethyl(dimethylaminopropyl) carbodiimide (EDC)/N-hydroxysuccinimide (NHS) chemistry, with ethanolamine blocking, in a running buffer of 0.01 M HEPES pH 7.4, 0.15 M NaCl, 3 mM EDTA, 0.005% v/v tween 20. Kinetic experiments were performed by first capturing antibodies (5-10 ug/ml) on the protein A surfaces using a 30 s contact time at 10 ul/min, with binding of 600, 200, 66.7, 22.2, 7.4, and 2.5 nM N-hCD73-his, using a 180 s association time and 360 s dissociation time at a flow rate of 30 ul/min. The running buffer for the kinetic experiments was 10 mM sodium phosphate, 130 mM sodium chloride, 0.05% tween 20, pH 7.1. The surfaces were regenerated after each cycle using two 30 s pulses of 10 mM glycine pH 1.5 at a flow rate of 30 μl/min. Sensogram data was double-referenced and then fitted to a 1:1 Langmuir model using Biacore T100 evaluation software v2.0.4, to determine the association rate constant (ka), the dissociation rate constant (kd), and the equilibrium dissociation constant (KD).

[2] = target: T3, human CD73 on human tumor cell lines (human, UniProt P21589 27-549); assay: cell-based or functional assay
T3 sequence (looked up): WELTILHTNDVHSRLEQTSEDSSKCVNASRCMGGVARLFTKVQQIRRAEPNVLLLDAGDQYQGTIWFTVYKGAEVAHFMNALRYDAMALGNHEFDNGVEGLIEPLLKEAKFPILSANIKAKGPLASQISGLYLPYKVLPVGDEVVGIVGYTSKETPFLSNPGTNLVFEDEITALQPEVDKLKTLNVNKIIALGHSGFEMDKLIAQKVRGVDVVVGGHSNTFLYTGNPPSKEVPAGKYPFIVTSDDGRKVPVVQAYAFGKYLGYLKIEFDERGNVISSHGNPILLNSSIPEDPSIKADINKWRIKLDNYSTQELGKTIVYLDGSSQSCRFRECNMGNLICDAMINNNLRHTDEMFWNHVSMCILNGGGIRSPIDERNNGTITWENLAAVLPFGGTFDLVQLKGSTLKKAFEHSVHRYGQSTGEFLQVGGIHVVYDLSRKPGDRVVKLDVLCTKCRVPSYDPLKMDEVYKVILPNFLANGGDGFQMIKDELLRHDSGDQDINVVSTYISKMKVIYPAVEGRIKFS

[3] = target: T2, N-terminal domain of hCD73 (residues …); assay: SPR Biacore T100, mAb captured on protein A, N-hCD73-his analyte, 25 C
Method: as §1

[4] = target: T3, human CD73 on human tumor cell lines; assay: cell-based or functional assay; remark: listed apart in the source
[5] = target: T4, hCD16b-NA2 (FcgRIIIb-NA2) (human, UniProt O75015 17-200, limits assumed); assay: SPR, FcgR analyte titration on protein A captured dAb-Fc
T4 construct: not shown: C-terminal his-tag
T4 sequence (O75015 17-200 N65S limits assumed): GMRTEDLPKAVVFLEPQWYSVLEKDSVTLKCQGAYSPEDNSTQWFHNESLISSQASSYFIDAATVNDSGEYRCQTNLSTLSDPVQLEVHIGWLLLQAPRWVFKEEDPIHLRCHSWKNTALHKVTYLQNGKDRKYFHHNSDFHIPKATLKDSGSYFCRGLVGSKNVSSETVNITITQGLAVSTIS
Method: (§2) A second SPR assay for testing the interaction between antibodies or dAb-Fc proteins with FcgR proteins is a protein A capture method. These experiments are also performed on either a Biacore™ T100 or Biacore™ T200 instrument (GE Healthcare) at 25° C. For these studies, protein A is immobilized on flow cells 1-4 of a CM5 sensor chip using standard ethyl (dimethylaminopropyl) carbodiimide (EDC)/N-hydroxysuccinimide (NHS) chemistry, with ethanolamine blocking, in a running buffer of 10 mM HEPES pH 7.4, 150 mM NaCl, 3 mM EDTA, 0.05% surfactant p20, to a density of ˜3000 RU.

[6] = target: T5, hCD16a-V158 (FcgRIIIa-V158) (human, UniProt P08637 17-208); assay: as above
T5 construct: not shown: C-terminal his-tag
T5 sequence (P08637 17-208 F176V limits assumed): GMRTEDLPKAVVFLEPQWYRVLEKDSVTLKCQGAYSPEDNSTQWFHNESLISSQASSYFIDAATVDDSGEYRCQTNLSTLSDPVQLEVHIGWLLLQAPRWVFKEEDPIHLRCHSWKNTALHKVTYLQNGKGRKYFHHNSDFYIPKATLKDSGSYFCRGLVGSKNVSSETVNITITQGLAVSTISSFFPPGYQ
Method: as §2

hCD32b (FcgRIIb) = target: T6, hCD32b (FcgRIIb) (human, UniProt P31994 46-217); assay: as above
T6 construct: not shown: C-terminal his-tag
T6 sequence (looked up): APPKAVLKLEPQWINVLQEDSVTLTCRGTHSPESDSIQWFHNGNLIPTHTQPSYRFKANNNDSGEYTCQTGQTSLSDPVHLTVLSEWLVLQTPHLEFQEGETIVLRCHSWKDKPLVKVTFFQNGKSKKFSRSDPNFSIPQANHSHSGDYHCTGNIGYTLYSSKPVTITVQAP
Method: as §2

[7] = target: T7, hCD32a-H131 (FcgRIIa-H131) (human, UniProt P12318 36-218); assay: as above
T7 construct: not shown: C-terminal his-tag
T7 sequence (looked up): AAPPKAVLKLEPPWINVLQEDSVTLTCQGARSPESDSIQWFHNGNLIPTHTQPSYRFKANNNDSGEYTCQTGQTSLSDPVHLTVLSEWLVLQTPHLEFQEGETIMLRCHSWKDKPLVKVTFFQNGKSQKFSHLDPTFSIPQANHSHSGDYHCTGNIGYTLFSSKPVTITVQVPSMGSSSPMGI
Method: as §2

[8] = target: T8, hCD32a-R131 (FcgRIIa-R131) (human, UniProt P12318 36-218); assay: as above
T8 construct: not shown: C-terminal his-tag
T8 sequence (looked up): T7 sequence (looked up) with H132R
Method: as §2

hCD40-Fc = target: T9, hCD40-Fc (human, UniProt P25942 21-193); assay: SPR, immobilized hCD40-Fc, dAb-Fc analyte (avidity)
T9 construct: not shown: Fc part of hCD40-Fc, not described
T9 sequence (P25942 21-193): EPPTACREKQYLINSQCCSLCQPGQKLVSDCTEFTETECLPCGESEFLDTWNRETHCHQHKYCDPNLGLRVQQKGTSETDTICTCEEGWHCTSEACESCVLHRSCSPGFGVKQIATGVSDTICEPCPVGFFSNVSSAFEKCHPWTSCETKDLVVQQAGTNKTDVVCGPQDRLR

B1: GITR.6.G2 (antibody, human IgG2, kappa)
heavy: QVQLVESGGGVVQPGRSLRLSCAASGFTFSSYGMHWVRQAPGKGLEWVAVIWYEGSNKYYADSVKGRFTISRDNSKNTLYLQMNSLRAEDTAVYYCARGGSMVRGDYYYGMDVWGQGTTVTVSSASTKGPSVFPLAPCSRSTSESTAALGCLVKDYFPEPVTVSWNSGALTSGVHTFPAVLQSSGLYSLSSVVTVPSSNFGTQTYTCNVDHKPSNTKVDKTVERKCCVECPPCPAPPVAGPSVFLFPPKPKDTLMISRTPEVTCVVVDVSHEDPEVQFNWYVDGVEVHNAKTKPREEQFNSTFRVVSVLTVVHQDWLNGKEYKCKVSNKGLPAPIEKTISKTKGQPREPQVYTLPPSREEMTKNQVSLTCLVKGFYPSDIAVEWESNGQPENNYKTTPPMLDSDGSFFLYSKLTVDKSRWQQGNVFSCSVMHEALHNHYTQKSLSLSPGK
light: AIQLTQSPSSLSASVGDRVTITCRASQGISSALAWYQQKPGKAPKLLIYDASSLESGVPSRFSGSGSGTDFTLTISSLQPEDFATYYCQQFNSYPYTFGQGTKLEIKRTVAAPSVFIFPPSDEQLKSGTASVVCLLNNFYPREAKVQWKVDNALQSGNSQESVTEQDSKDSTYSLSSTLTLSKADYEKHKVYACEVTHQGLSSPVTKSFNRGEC
Human GITR
  NFKB signaling in TCR activated CD4+ T cells, EC50: 12.8 nM
  NFKB signaling in TCR activated CD4+ T cells, Emax: 69%
  NFKB signaling in TCR activated CD8+ T cells, EC50: 9 nM
  NFKB signaling in TCR activated CD8+ T cells, Emax: 85%

B2: CD73.10-IgG2-C219S-IgG1.1 (antibody)
heavy: QVQLVESGGGVVQPGRSLRLSCAASGFTFSNYGMHWVRQAPGKGLEWVAVIWYDESNKYYPDSVKGRFTISRDNSKNTLYLQMNSLRAEDTAVYYCARGGSSWYPDSFDIWGQGTMVTVSSASTKGPSVFPLAPCSRSTSESTAALGCLVKDYFPEPVTVSWNSGALTSGVHTFPAVLQSSGLYSLSSVVTVPSSNFGTQTYTCNVDHKPSNTKVDKTVERKSCVECPPCPAPPVAGPSVFLFPPKPKDTLMISRTPEVTCVVVDVSHEDPEVKFNWYVDGVEVHNAKTKPREEQYNSTYRVVSVLTVLHQDWLNGKEYKCKVSNKALPSSIEKTISKAKGQPREPQVYTLPPSREEMTKNQVSLTCLVKGFYPSDIAVEWESNGQPENNYKTTPPMLDSDGSFFLYSKLTVDKSRWQQGNVFSCSVMHEALHNHYTQKSLSLSPG
light: not shown
notes: anti-CD73; also called CD73.10-IgG2CS-IgG1.1f; CD73.10-Vh-hHC-IgG2-C219S-IgG1.1f
[1]
  Kd: 6.8 nM
  koff: 0.0016 s⁻¹
  kon: 230000 M⁻¹ s⁻¹
[2]
  % internalization, Calu6: 91%
  % internalization, H2030: 87%
  % internalization, H2228: 92%
  % internalization, HCC15: 91%
  T1/2 internalization, Calu6: 3.1 min
  T1/2 internalization, H2030: 4.3 min
  T1/2 internalization, H2228: 9.4 min
  T1/2 internalization, HCC15: 3 min
[3]
  Kd: 5.7 nM
  koff: 0.0014 s⁻¹
  kon: 240000 M⁻¹ s⁻¹
[4]
  EC50 of CD73 internalization, Calu6, 2 h: 0.87 nM
  Ymax of CD73 internalization, Calu6, 2 h: 99 % of 100 nM 11F11

B3: 3h56-269-IgG1.1f (Fc fusion)
chain: EVQLLESGGGLVQPGGSLRLSCAASGFTFRDYEMWWVRQAPGKGLERVSAINPQGTRTYYADSVKGRFTISRDNSKNTLYLQMNSLRAEDTAVYYCAKLPFRFSDRGQGTLVTVSSASTEPKSCDKTHTCPPCPAPEAEGAPSVFLFPPKPKDTLMISRTPEVTCVVVDVSHEDPEVKFNWYVDGVEVHNAKTKPREEQYNSTYRVVSVLTVLHQDWLNGKEYKCKVSNKALPSSIEKTISKAKGQPREPQVYTLPPSREEMTKNQVSLTCLVKGFYPSDIAVEWESNGQPENNYKTTPPVLDSDGSFFLYSKLTVDKSRWQQGNVFSCSVMHEALHNHYTQKSLSLSPGK
notes: anti-CD40 dAb-Fc
[5]
  Kd: > 5000 nM
[6]
  Kd: > 5000 nM
hCD32b (FcgRIIb)
  Kd: > 5000 nM
[7]
  Kd: > 5000 nM
[8]
  Kd: > 5000 nM

B4: 3h56-269-IgG1.3f (Fc fusion)
chain: B3 chain with S234A, S235P
notes: dAb-Fc fusion protein
hCD40-Fc
  KDapparent: < 1 nM

B5: 3h56-269-IgG1.1f (Fc fusion)
chain: B3 chain
notes: dAb-Fc fusion protein
hCD40-Fc
  KDapparent: < 1 nM
